Experimental data as given in patent publication US20060058231A1 (Xencor, published 2006).

T1: BMPRII receptor-Fc fusion (UniProt Q13873 27-151, limits assumed)
T1 construct: BMP receptor-Fc fusion used at 5 ug/mL
T1 sequence (looked up): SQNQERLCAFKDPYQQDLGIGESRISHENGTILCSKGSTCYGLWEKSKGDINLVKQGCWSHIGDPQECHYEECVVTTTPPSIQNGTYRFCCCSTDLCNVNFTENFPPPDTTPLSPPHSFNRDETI

T2: BMPRIb receptor-Fc fusion (UniProt O00238 14-126)
T2 construct: BMP receptor-Fc fusion used at 5 ug/mL; also called ALK-6
T2 sequence (looked up): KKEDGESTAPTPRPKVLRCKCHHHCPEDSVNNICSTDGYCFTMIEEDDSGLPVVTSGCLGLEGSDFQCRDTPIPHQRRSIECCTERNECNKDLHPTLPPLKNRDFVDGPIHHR


How the values were obtained:
Test in all cases: ELISA-like plate assay, captured BMP-7 from conditioned media, receptor-Fc detection
[1] = target: T3, BMPRIa receptor-Fc fusion (UniProt P36894 24-152, limits assumed)
T3 construct: also called ALK-3
T3 sequence (P36894 24-152 limits assumed): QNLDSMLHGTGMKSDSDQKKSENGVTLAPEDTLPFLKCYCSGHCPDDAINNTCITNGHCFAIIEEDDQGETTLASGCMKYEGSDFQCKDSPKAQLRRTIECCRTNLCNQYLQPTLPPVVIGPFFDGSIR

[2] = target: T1, BMPRII receptor-Fc fusion
[3] = target: T2, BMPRIb receptor-Fc fusion
[4] = target: T4, ActRIIa receptor-Fc fusion (UniProt P27037 20-134, limits assumed)
T4 construct: BMP receptor-Fc fusion used at 5 ug/mL
T4 sequence (P27037 20-134 limits assumed): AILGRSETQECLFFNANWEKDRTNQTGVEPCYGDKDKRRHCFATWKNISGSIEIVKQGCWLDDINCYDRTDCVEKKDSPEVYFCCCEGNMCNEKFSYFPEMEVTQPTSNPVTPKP

Binder	BMPRIa binding (relative to wild type = 1.0) [1]	BMPRII binding (relative to wild type = 1.0) [2]	BMPRIb binding (relative to wild type = 1.0) [3]	ActRIIa binding (relative to wild type = 1.0) [4]
BMP-7 variant F117R (ligand, In conditioned media; numbering on mature BMP-7) STGGKQRSQNRSKTPKNQEALRMASVAENSSSDQRQACKKHELYVSFRDLGWQDWIIAPEGYAAYYCEGECAFPLNSYMNATNHAIVQTLVHFINPETVPKPCCAPTQLNAISVLYRDDSSNVILKKYRNMVVRACGCH	0.47 relative to wild type	0.72 relative to wild type	0.71 relative to wild type	0.35 relative to wild type
BMP-7 variant L21G (ligand, In conditioned media; numbering on mature BMP-7) STGGKQRSQNRSKTPKNQEAGRMASVAENSSSDQRQACKKHELYVSFRDLGWQDWIIAPEGYAAYYCEGECAFPLNSYMNATNHAIVQTLVHFINPETVPKPCCAPTQLNAISVLYFDDSSNVILKKYRNMVVRACGCH	2.53 relative to wild type	2.3 relative to wild type	3.65 relative to wild type	1.5 relative to wild type
BMP-7 variant I86K (ligand, In conditioned media; numbering on mature BMP-7) STGGKQRSQNRSKTPKNQEALRMASVAENSSSDQRQACKKHELYVSFRDLGWQDWIIAPEGYAAYYCEGECAFPLNSYMNATNHAKVQTLVHFINPETVPKPCCAPTQLNAISVLYFDDSSNVILKKYRNMVVRACGCH	0.81 relative to wild type	1.02 relative to wild type	0.69 relative to wild type	0.97 relative to wild type
BMP-7 variant K126E (ligand, In conditioned media; numbering on mature BMP-7) STGGKQRSQNRSKTPKNQEALRMASVAENSSSDQRQACKKHELYVSFRDLGWQDWIIAPEGYAAYYCEGECAFPLNSYMNATNHAIVQTLVHFINPETVPKPCCAPTQLNAISVLYFDDSSNVILEKYRNMVVRACGCH	0.23 relative to wild type	0 relative to wild type	0.22 relative to wild type	0.26 relative to wild type
BMP-7 variant L90E (ligand, In conditioned media; numbering on mature BMP-7) STGGKQRSQNRSKTPKNQEALRMASVAENSSSDQRQACKKHELYVSFRDLGWQDWIIAPEGYAAYYCEGECAFPLNSYMNATNHAIVQTEVHFINPETVPKPCCAPTQLNAISVLYFDDSSNVILKKYRNMVVRACGCH	0.2 relative to wild type	0.18 relative to wild type	0.27 relative to wild type	0.24 relative to wild type
BMP-7 variant K39A (ligand, In conditioned media; numbering on mature BMP-7) STGGKQRSQNRSKTPKNQEALRMASVAENSSSDQRQACAKHELYVSFRDLGWQDWIIAPEGYAAYYCEGECAFPLNSYMNATNHAIVQTLVHFINPETVPKPCCAPTQLNAISVLYFDDSSNVILKKYRNMVVRACGCH	3.48 relative to wild type	1.51 relative to wild type	2.86 relative to wild type	1.06 relative to wild type
BMP-7 variant F117Y (ligand, In conditioned media; numbering on mature BMP-7) STGGKQRSQNRSKTPKNQEALRMASVAENSSSDQRQACKKHELYVSFRDLGWQDWIIAPEGYAAYYCEGECAFPLNSYMNATNHAIVQTLVHFINPETVPKPCCAPTQLNAISVLYYDDSSNVILKKYRNMVVRACGCH	1.07 relative to wild type	0.96 relative to wild type	0.73 relative to wild type	1.03 relative to wild type
BMP-7 variant L21D (ligand, In conditioned media; numbering on mature BMP-7) STGGKQRSQNRSKTPKNQEADRMASVAENSSSDQRQACKKHELYVSFRDLGWQDWIIAPEGYAAYYCEGECAFPLNSYMNATNHAIVQTLVHFINPETVPKPCCAPTQLNAISVLYFDDSSNVILKKYRNMVVRACGCH	1.01 relative to wild type	0.94 relative to wild type	1.52 relative to wild type	0.94 relative to wild type
BMP-7 variant K126Q (ligand, In conditioned media; numbering on mature BMP-7) STGGKQRSQNRSKTPKNQEALRMASVAENSSSDQRQACKKHELYVSFRDLGWQDWIIAPEGYAAYYCEGECAFPLNSYMNATNHAIVQTLVHFINPETVPKPCCAPTQLNAISVLYFDDSSNVILQKYRNMVVRACGCH	0.46 relative to wild type	0.28 relative to wild type	0.57 relative to wild type	0.81 relative to wild type
BMP-7 variant L21N (ligand, In conditioned media; numbering on mature BMP-7) STGGKQRSQNRSKTPKNQEANRMASVAENSSSDQRQACKKHELYVSFRDLGWQDWIIAPEGYAAYYCEGECAFPLNSYMNATNHAIVQTLVHFINPETVPKPCCAPTQLNAISVLYFDDSSNVILKKYRNMVVRACGCH	1.57 relative to wild type	1.73 relative to wild type	2.81 relative to wild type	1.03 relative to wild type
BMP-7 variant I86E (ligand, In conditioned media; numbering on mature BMP-7) STGGKQRSQNRSKTPKNQEALRMASVAENSSSDQRQACKKHELYVSFRDLGWQDWIIAPEGYAAYYCEGECAFPLNSYMNATNHAEVQTLVHFINPETVPKPCCAPTQLNAISVLYFDDSSNVILKKYRNMVVRACGCH	0.66 relative to wild type	1.13 relative to wild type	0.69 relative to wild type	1 relative to wild type
BMP-7 variant K39S (ligand, In conditioned media; numbering on mature BMP-7) STGGKQRSQNRSKTPKNQEALRMASVAENSSSDQRQACSKHELYVSFRDLGWQDWIIAPEGYAAYYCEGECAFPLNSYMNATNHAIVQTLVHFINPETVPKPCCAPTQLNAISVLYFDDSSNVILKKYRNMVVRACGCH	2.77 relative to wild type	1.37 relative to wild type	2.23 relative to wild type	1.04 relative to wild type
BMP-7 variant K39N (ligand, In conditioned media; numbering on mature BMP-7) STGGKQRSQNRSKTPKNQEALRMASVAENSSSDQRQACNKHELYVSFRDLGWQDWIIAPEGYAAYYCEGECAFPLNSYMNATNHAIVQTLVHFINPETVPKPCCAPTQLNAISVLYFDDSSNVILKKYRNMVVRACGCH	1.98 relative to wild type	0.99 relative to wild type	1.63 relative to wild type	1.08 relative to wild type
BMP-7 variant I86Q (ligand, In conditioned media; numbering on mature BMP-7) STGGKQRSQNRSKTPKNQEALRMASVAENSSSDQRQACKKHELYVSFRDLGWQDWIIAPEGYAAYYCEGECAFPLNSYMNATNHAQVQTLVHFINPETVPKPCCAPTQLNAISVLYFDDSSNVILKKYRNMVVRACGCH	0.66 relative to wild type	1.07 relative to wild type	0.82 relative to wild type	0.96 relative to wild type
BMP-7 variant I94Q (ligand, In conditioned media; numbering on mature BMP-7) STGGKQRSQNRSKTPKNQEALRMASVAENSSSDQRQACKKHELYVSFRDLGWQDWIIAPEGYAAYYCEGECAFPLNSYMNATNHAIVQTLVHFQNPETVPKPCCAPTQLNAISVLYFDDSSNVILKKYRNMVVRACGCH	0.74 relative to wild type	1.32 relative to wild type	0.74 relative to wild type	1.1 relative to wild type
BMP-7 variant I86D (ligand, In conditioned media; numbering on mature BMP-7) STGGKQRSQNRSKTPKNQEALRMASVAENSSSDQRQACKKHELYVSFRDLGWQDWIIAPEGYAAYYCEGECAFPLNSYMNATNHADVQTLVHFINPETVPKPCCAPTQLNAISVLYFDDSSNVILKKYRNMVVRACGCH	1.03 relative to wild type	1.31 relative to wild type	1.18 relative to wild type	1.09 relative to wild type
BMP-7 variant I57L (ligand, In conditioned media; numbering on mature BMP-7) STGGKQRSQNRSKTPKNQEALRMASVAENSSSDQRQACKKHELYVSFRDLGWQDWILAPEGYAAYYCEGECAFPLNSYMNATNHAIVQTLVHFINPETVPKPCCAPTQLNAISVLYFDDSSNVILKKYRNMVVRACGCH	0.92 relative to wild type	0.4 relative to wild type	1.17 relative to wild type	0.9 relative to wild type
BMP-7 variant L21R (ligand, In conditioned media; numbering on mature BMP-7) STGGKQRSQNRSKTPKNQEARRMASVAENSSSDQRQACKKHELYVSFRDLGWQDWIIAPEGYAAYYCEGECAFPLNSYMNATNHAIVQTLVHFINPETVPKPCCAPTQLNAISVLYFDDSSNVILKKYRNMVVRACGCH	0.83 relative to wild type	0.66 relative to wild type	1.01 relative to wild type	0.84 relative to wild type
